# Experimental data taken from FireProtDB (doi:10.1016/0022-2836(92)90560-7).
# B1: Ribonuclease, P00648 (parent)
# chain: MMKMEGIALKKRLSWISVCLLVLVSAAGMLFSTAAKTETSSHKAHTEAQVINTFDGVADYLQTYHKLPDNYITKSEAQALGWVASKGNLADVAPGKSIGGDIFSNREGKLPGKSGRTWREADINYTSGFRNSDRILYSSDWLIYKTTDHYQTFTKIR
# Variants of: B1
# Settings: Bacillus amyloliquefaciens, 25 °C, Urea, Fluorescence, MES/Tris 150 mM/150 mM/, NaCl 1 M, structure 1BNI, whole UniProt chain shown
Variant,ddG of mutation (higher = less stable) (pH 5.8),denaturant m value (pH 5.8),denaturant midpoint (higher = more stable) (pH 5.8),unfolding free energy (pH 5.8),ddG of mutation (higher = less stable) (pH 9),denaturant m value (pH 9),denaturant midpoint (higher = more stable) (pH 9),unfolding free energy (pH 9)
MMKMEGIALKKRLSWISVCLLVLVSAAGMLFSTAAKTETSSHKAHTEAQVINTFDGVADYLQTYHKLPDNYITKSEAQALGWVASKGNLADVAPGKSIGGDIFSNREGKLPGKSGRTWREADINYTSGFRNSDRILYSSDLLIYKTTDHYQTFTKIR,1.59 kcal/mol,2 kcal/mol/M,4.8 M,9.41 kcal/mol,0.66 kcal/mol,1.98 kcal/mol/M,4.47 M,8.75 kcal/mol
MMKMEGIALKKRLSWISVCLLVLVSAAGMLFSTAAKTETSSHKAHTEAQVINTFDGVADYLQTYHKLPDNYITKSEAQALGWVASKGNLADVAPGKSIGGDIFSNREGKLPGKSGRTWREADINYTSGFRNSDRILYSSDYLIYKTTDHYQTFTKIR,1.27 kcal/mol,1.98 kcal/mol/M,4.96 M,9.73 kcal/mol,0.99 kcal/mol,2 kcal/mol/M,4.29 M,8.42 kcal/mol
MMKMEGIALKKRLSWISVCLLVLVSAAGMLFSTAAKTETSSHKAHTEAQVINTFDGVADYLQTYHKLPDNYITKSEAQALGWVASKGNLADVAPGKSIGGDIFSNREGKLPGKSGRTWREADINYTSGFRNSDRILYSSDFLIYKTTDHYQTFTKIR,1.06 kcal/mol,1.89 kcal/mol/M,5.07 M,9.94 kcal/mol,0.6 kcal/mol,2.01 kcal/mol/M,4.5 M,8.81 kcal/mol
MMKMEGIALKKRLSWISVCLLVLVSAAGMLFSTAAKTETSSHKAHTEAQVINTFDGVADYLQTYGKLPDNYITKSEAQALGWVASKGNLADVAPGKSIGGDIFSNREGKLPGKSGRTWREADINYTSGFRNSDRILYSSDWLIYKTTDHYQTFTKIR,0.98 kcal/mol,1.85 kcal/mol/M,5.12 M,10 kcal/mol,-0.51 kcal/mol,2.07 kcal/mol/M,5.06 M,9.92 kcal/mol
MMKMEGIALKKRLSWISVCLLVLVSAAGMLFSTAAKTETSSHKAHTEAQVINTFDGVADYLQTYGKLPDNYITKSEAQALGWVASKGNLADVAPGKSIGGDIFSNREGKLPGKSGRTWREADINYTSGFRNSDRILYSSDLLIYKTTDHYQTFTKIR,,,,,,1.8 kcal/mol/M,4.96 M,9.72 kcal/mol
